Experimental data reported in patent US9493781B2, “Synthetic brassica-derived chloroplast transit peptides” (DOW AGROSCIENCES LLC, priority 2012, dated 2016).

Experiments:
Arabidopsis [1] = assay: dgt-28, dgt-32, dgt-33, dgt-3, dgt-7 transformed Arabidopsis (T1, T2, T3) response to postemergence glyphosate, % visual injury; format: in vivo, Arabidopsis thaliana; conditions: 14 days after application
Summary of the method: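 Transgenic T1, T2 and T3 Arabidopsis (low-copy events for T2/T3, hemizygous and homozygous in T2) sprayed postemergence with glyphosate at 105, 420, 1,680 or 3,360 g ae/ha. Visual injury scored 2 weeks after treatment as mean, SD and range. Non-transformed Columbia served as sensitive control.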

Arabidopsis [2] = assay: Heritability progeny test of T1 families (T2 plants) with glufosinate, Arabidopsis; format: in vivo, Arabidopsis thaliana; conditions: progeny test of 100 T2 plants, glufosinate 200 g ae/ha
Source text: Heritability. Confirmed transgenic T1 Arabidopsis events were self-pollinated to produce T2 seed. These seed were progeny tested by applying Ignite™ herbicide containing glufosinate (200 g ae/ha) to 100 random T2 siblings. […] The T1 families (T2 plants) segregated in the anticipated 3 Resistant: 1 Sensitive model for a dominantly inherited single locus with Mendelian inheritance as determined by Chi square analysis (P>0.05). […] Seed were collected from 5 to 15 T2 individuals (T3 seed). Twenty-five T3 siblings from each of 3-4 randomly-selected T2 families were progeny tested as previously described.

[3] = Table 8, T1 Arabidopsis, 105 g ae/ha glyphosate
[4] = Table 8, T1 Arabidopsis, 420 g ae/ha glyphosate
[5] = Table 8, T1 Arabidopsis, 1680 g ae/ha glyphosate
[6] = Table 8, T1 Arabidopsis, 3360 g ae/ha glyphosate
[7] = Table 10, T1 Arabidopsis, 1,680 g ae/ha glyphosate
[8] = Table 12, T2 Arabidopsis, 1 copy, 420 g ae/ha glyphosate
[9] = Table 12, T2 Arabidopsis, 1 copy, 840 g ae/ha glyphosate
[10] = Table 12, T2 Arabidopsis, 1 copy, 1680 g ae/ha glyphosate
[11] = Table 12, T2 Arabidopsis, 1 copy, 3360 g ae/ha glyphosate

B1: pDAB105532: TraP9 v2 -- dgt-28 v5: binary construct TraP9 v2: dgt-28 v5 (SEQ ID NO:35) (nucleic acid)
DNA: ATGGCACAAGCCAGCCGTATCTGCCAGAATCCATGTGTGATATCCAATCTCCCCAAAAGCAACCACCGTAAGTCCCCTTTCTCTGTCTCACTCAAGACGCATCAGCCTAGAGCCTCTTCATGGGGACTTAAGAAGTCTGGCACCATGCTGAACGGTTCAGTGATTAGACCCGTCAAGGTGACAGCTTCTGTTTCCGCAGCAAGAGGGATGCCAGCCTTGTCTTTACCTGGATCAAAGAGTATCACAGCTAGGGCACTCTTTCTTGCTGCTGCTGCTGATGGGGTTACTACTTTGGTGAGGCCATTGAGAAGTGACGACACAGAAGGATTCGCTGAGGGGTTAGTTCGTTTAGGCTATCGTGTAGGGAGGACACCCGATACTTGGCAAGTCGATGGCAGACCACAAGGACCAGCAGTGGCTGAGGCTGACGTCTACTGTAGAGACGGAGCAACCACCGCTAGATTCTTGCCAACCTTAGCAGCTGCTGGTCACGGAACATACAGATTTGATGCTTCACCACAGATGAGGAGACGTCCTCTTTTGCCCTTAAGCAGAGCCTTGAGGGATTTGGGTGTCGATCTTAGACACGAAGAAGCTGAAGGTCATCACCCTCTGACTGTCCGTGCTGCTGGGGTTGAAGGAGGAGAGGTTACTTTGGATGCTGGTCAGTCAAGTCAGTATCTCACTGCCTTGTTGCTCCTTGGTCCCCTTACAAGACAAGGACTGAGGATAAGGGTTACTGATTTGGTGTCAGCACCATACGTGGAGATTACGCTTGCAATGATGAGGGCTTTCGGAGTTGAAGTGGCAAGGGAGGGAGATGTGTTCGTTGTTCCACCTGGTGGATATCGTGCAACTACGTATGCTATAGAACCCGACGCAAGTACTGCTTCTTACTTCTTCGCAGCTGCTGCTTTGACTCCTGGAGCTGAAGTGACTGTACCTGGGTTAGGCACGGGAGCACTTCAAGGAGATTTGGGATTTGTAGATGTCTTAAGGAGAATGGGAGCCGAGGTGTCCGTAGGAGCTGATGCAACCACTGTTAGAGGAACTGGTGAATTGCGTGGCCTTACAGCCAACATGAGAGACATAAGTGATACGATGCCGACCCTCGCTGCAATAGCACCCTTTGCTAGTGCTCCAGTTAGAATCGAGGATGTTGCCAACACTCGTGTCAAAGAATGTGACAGACTTGAGGCTTGTGCAGAGAACCTTAGGAGGTTGGGAGTAAGGGTTGCAACGGGTCCGGACTGGATTGAGATACACCCTGGTCCAGCTACTGGTGCTCAAGTCACAAGCTATGGTGATCACAGAATTGTGATGTCATTTGCAGTGACTGGACTTCGTGTGCCTGGGATCAGCTTCGACGACCCTGGCTGTGTTCGTAAGACTTTTCCTGGGTTTCACGAGGCTTTCGCAGAATTGAGGCGTGGCATTGGGAGCTGA
modifications: In-frame fusion of dgt-28 v5 and TraP9 v2
% Injury Ave (Arabidopsis [1]; [3]): 17.5% | % Injury Range (%) (Arabidopsis [1]; [3]): 0-60% | No. plants with 20-40% injury (Arabidopsis [1]; [3]): 0 | No. plants with <20% injury (Arabidopsis [1]; [3]): 3 | No. plants with >40% injury (Arabidopsis [1]; [3]): 1 | % Injury Ave (Arabidopsis [1]; [4]): 39.5% | % Injury Range (%) (Arabidopsis [1]; [4]): 18-70% | No. plants with 20-40% injury (Arabidopsis [1]; [4]): 1 | No. plants with <20% injury (Arabidopsis [1]; [4]): 1 | No. plants with >40% injury (Arabidopsis [1]; [4]): 2 | % Injury Ave (Arabidopsis [1]; [5]): 26.3% | % Injury Range (%) (Arabidopsis [1]; [5]): 5-80% | No. plants with 20-40% injury (Arabidopsis [1]; [5]): 0 | No. plants with <20% injury (Arabidopsis [1]; [5]): 3 | No. plants with >40% injury (Arabidopsis [1]; [5]): 1 | % Injury Ave (Arabidopsis [1]; [6]): 25.8% | % Injury Range (%) (Arabidopsis [1]; [6]): 8-75% | No. plants with 20-40% injury (Arabidopsis [1]; [6]): 0 | No. plants with <20% injury (Arabidopsis [1]; [6]): 3 | No. plants with >40% injury (Arabidopsis [1]; [6]): 1 | % Injury Ave (Arabidopsis [1]; [7]): 26.3% | % Injury Range (%) (Arabidopsis [1]; [7]): 5-80% | No. plants with 20-40% injury (Arabidopsis [1]; [7]): 0 | No. plants with <20% injury (Arabidopsis [1]; [7]): 3 | No. plants with >40% injury (Arabidopsis [1]; [7]): 1 | % Injury Ave (Arabidopsis [1]; [8]): 2.0% | % Injury Range (%) (Arabidopsis [1]; [8]): 0-8% | No. plants with 20-40% injury (Arabidopsis [1]; [8]): 0 | No. plants with <20% injury (Arabidopsis [1]; [8]): 4 | No. plants with >40% injury (Arabidopsis [1]; [8]): 0 | % Injury Ave (Arabidopsis [1]; [9]): 9.0% | % Injury Range (%) (Arabidopsis [1]; [9]): 8-12% | No. plants with 20-40% injury (Arabidopsis [1]; [9]): 0 | No. plants with <20% injury (Arabidopsis [1]; [9]): 4 | No. plants with >40% injury (Arabidopsis [1]; [9]): 0 | % Injury Ave (Arabidopsis [1]; [10]): 7.3% | % Injury Range (%) (Arabidopsis [1]; [10]): 2-12% | No. plants with 20-40% injury (Arabidopsis [1]; [10]): 0 | No. plants with <20% injury (Arabidopsis [1]; [10]): 4 | No. plants with >40% injury (Arabidopsis [1]; [10]): 0 | % Injury Ave (Arabidopsis [1]; [11]): 11.0% | % Injury Range (%) (Arabidopsis [1]; [11]): 10-12% | No. plants with 20-40% injury (Arabidopsis [1]; [11]): 0 | No. plants with <20% injury (Arabidopsis [1]; [11]): 4 | No. plants with >40% injury (Arabidopsis [1]; [11]): 0 | T1 Families Tested Segregating at 1 Locus (%) (Arabidopsis [2]): 100%

B2: pDAB105533: TraP12 v2 -- dgt-28 v5: binary construct TraP12 v2: dgt-28 v5 (SEQ ID NO:36) (nucleic acid)
DNA: ATGGCACAATCTAGCAGAATCTGCCACGGTGTGCAGAACCCATGTGTGATCATTTCAAATCTCTCAAAGTCCAATCAGAACAAATCACCTTTCTCCGTCTCCCTCAAGACACACCAGCATCCAAGGGCATACCCGATAAGCAGCTCATGGGGACTCAAGAAGAGCGGAATGACTCTGATTGGCTCTGAGCTTCGTCCTCTTAAGGTTATGTCCTCTGTTTCCGCAGCAAGAGGGATGCCAGCCTTGTCTTTACCTGGATCAAAGAGTATCACAGCTAGGGCACTCTTTCTTGCTGCTGCTGCTGATGGGGTTACTACTTTGGTGAGGCCATTGAGAAGTGACGACACAGAAGGATTCGCTGAGGGGTTAGTTCGTTTAGGCTATCGTGTAGGGAGGACACCCGATACTTGGCAAGTCGATGGCAGACCACAAGGACCAGCAGTGGCTGAGGCTGACGTCTACTGTAGAGACGGAGCAACCACCGCTAGATTCTTGCCAACCTTAGCAGCTGCTGGTCACGGAACATACAGATTTGATGCTTCACCACAGATGAGGAGACGTCCTCTTTTGCCCTTAAGCAGAGCCTTGAGGGATTTGGGTGTCGATCTTAGACACGAAGAAGCTGAAGGTCATCACCCTCTGACTGTCCGTGCTGCTGGGGTTGAAGGAGGAGAGGTTACTTTGGATGCTGGTCAGTCAAGTCAGTATCTCACTGCCTTGTTGCTCCTTGGTCCCCTTACAAGACAAGGACTGAGGATAAGGGTTACTGATTTGGTGTCAGCACCATACGTGGAGATTACGCTTGCAATGATGAGGGCTTTCGGAGTTGAAGTGGCAAGGGAGGGAGATGTGTTCGTTGTTCCACCTGGTGGATATCGTGCAACTACGTATGCTATAGAACCCGACGCAAGTACTGCTTCTTACTTCTTCGCAGCTGCTGCTTTGACTCCTGGAGCTGAAGTGACTGTACCTGGGTTAGGCACGGGAGCACTTCAAGGAGATTTGGGATTTGTAGATGTCTTAAGGAGAATGGGAGCCGAGGTGTCCGTAGGAGCTGATGCAACCACTGTTAGAGGAACTGGTGAATTGCGTGGCCTTACAGCCAACATGAGAGACATAAGTGATACGATGCCGACCCTCGCTGCAATAGCACCCTTTGCTAGTGCTCCAGTTAGAATCGAGGATGTTGCCAACACTCGTGTCAAAGAATGTGACAGACTTGAGGCTTGTGCAGAGAACCTTAGGAGGTTGGGAGTAAGGGTTGCAACGGGTCCGGACTGGATTGAGATACACCCTGGTCCAGCTACTGGTGCTCAAGTCACAAGCTATGGTGATCACAGAATTGTGATGTCATTTGCAGTGACTGGACTTCGTGTGCCTGGGATCAGCTTCGACGACCCTGGCTGTGTTCGTAAGACTTTTCCTGGGTTTCACGAGGCTTTCGCAGAATTGAGGCGTGGCATTGGGAGCTGA
modifications: In-frame fusion of dgt-28 v5 and TraP12 v2
% Injury Ave (Arabidopsis [1]; [3]): 10.0% | % Injury Range (%) (Arabidopsis [1]; [3]): 0-25% | No. plants with 20-40% injury (Arabidopsis [1]; [3]): 1 | No. plants with <20% injury (Arabidopsis [1]; [3]): 4 | No. plants with >40% injury (Arabidopsis [1]; [3]): 0 | % Injury Ave (Arabidopsis [1]; [4]): 53.6% | % Injury Range (%) (Arabidopsis [1]; [4]): 8-85% | No. plants with 20-40% injury (Arabidopsis [1]; [4]): 1 | No. plants with <20% injury (Arabidopsis [1]; [4]): 1 | No. plants with >40% injury (Arabidopsis [1]; [4]): 3 | % Injury Ave (Arabidopsis [1]; [5]): 11.0% | % Injury Range (%) (Arabidopsis [1]; [5]): 0-20% | No. plants with 20-40% injury (Arabidopsis [1]; [5]): 1 | No. plants with <20% injury (Arabidopsis [1]; [5]): 4 | No. plants with >40% injury (Arabidopsis [1]; [5]): 0 | % Injury Ave (Arabidopsis [1]; [6]): 55.0% | % Injury Range (%) (Arabidopsis [1]; [6]): 25-80% | No. plants with 20-40% injury (Arabidopsis [1]; [6]): 2 | No. plants with <20% injury (Arabidopsis [1]; [6]): 0 | No. plants with >40% injury (Arabidopsis [1]; [6]): 3 | % Injury Ave (Arabidopsis [1]; [7]): 11.0% | % Injury Range (%) (Arabidopsis [1]; [7]): 0-20% | No. plants with 20-40% injury (Arabidopsis [1]; [7]): 1 | No. plants with <20% injury (Arabidopsis [1]; [7]): 4 | No. plants with >40% injury (Arabidopsis [1]; [7]): 0 | % Injury Ave (Arabidopsis [1]; [8]): 0.0% | % Injury Range (%) (Arabidopsis [1]; [8]): 0% | No. plants with 20-40% injury (Arabidopsis [1]; [8]): 0 | No. plants with <20% injury (Arabidopsis [1]; [8]): 4 | No. plants with >40% injury (Arabidopsis [1]; [8]): 0 | % Injury Ave (Arabidopsis [1]; [9]): 0.0% | % Injury Range (%) (Arabidopsis [1]; [9]): 0% | No. plants with 20-40% injury (Arabidopsis [1]; [9]): 0 | No. plants with <20% injury (Arabidopsis [1]; [9]): 4 | No. plants with >40% injury (Arabidopsis [1]; [9]): 0 | % Injury Ave (Arabidopsis [1]; [10]): 0.0% | % Injury Range (%) (Arabidopsis [1]; [10]): 0% | No. plants with 20-40% injury (Arabidopsis [1]; [10]): 0 | No. plants with <20% injury (Arabidopsis [1]; [10]): 4 | No. plants with >40% injury (Arabidopsis [1]; [10]): 0 | % Injury Ave (Arabidopsis [1]; [11]): 13.3% | % Injury Range (%) (Arabidopsis [1]; [11]): 8-25% | No. plants with 20-40% injury (Arabidopsis [1]; [11]): 1 | No. plants with <20% injury (Arabidopsis [1]; [11]): 3 | No. plants with >40% injury (Arabidopsis [1]; [11]): 0 | T1 Families Tested Segregating at 1 Locus (%) (Arabidopsis [2]): 50%
